Assay results published in patent US20130287807A1, “COMPOUNDS FOR TREATING SYMPTOMS ASSOCIATED WITH PARKINSON'S DISEASE” (priority 2008, published 2013).
Each block holds one molecule with its values, some of them ahead of it.

Experiments:
[1] = tested on: monoclonal antibody MV-001; assay: In vitro inhibition assay (ELISA), MV-001 binding to original epitope; design: species or system C57/B16 mice; settings: Table 2C; OD at 10 ug peptide compared to original peptide
Method: Different amounts of peptides (concentrations ranging from 10 μg to 0.08 μg; serial dilutions; for MV-002: concentrations ranging from 5 μg to 0.03 μg; serial dilutions), derived from Phage Display were incubated with the monoclonal antibody that was used for the screening procedure. Peptides diminishing subsequent binding of the antibody to the original epitope coated on ELISA plates were considered as inhibiting in this assay.
Legend to Table 2C: the inhibition capacity is coded by the following code: Weak inhibition means more peptide is required to lower AB binding than with the original epitope; strong inhibition means similar peptide amounts are required for mimotope and original epitope for lowering AB binding. Mimotopes are compared to the original peptide as standard. OD at 10 ug peptide used in the assay is used to calculate the competition capacity compared to original peptide.

[2] = tested on: monoclonal antibody MV-001; assay: In vitro binding assay (ELISA), BSA-coupled peptides, parental antibody MV-001; design: species or system C57/B16 mice; settings: Table 1C; peptide-BSA on plate, compared to original epitope
Method: Peptides derived from Phage Display as well as variants thereof were coupled to BSA and bound to ELISA plates (1 μM; as indicated in the respective figures) and subsequently incubated with the monoclonal antibody that was used for the screening procedure to analyse binding capacity of identified peptides.
Legend to Table 1C: the binding capacity is coded by the following binding code: 1:X describes the dilution factor of the parental AB

[3] = target: monoclonal antibody MV-001; assay: ELISA on peptide-BSA; code 2 = medium binding, OD halfmax 1:4000-20000
[4] = target: monoclonal antibody MV-002; assay: ELISA on peptide-BSA; code 3 = strong binding, OD halfmax 1:>320000
[5] = target: DAEFRH-peptide-specific monoclonal antibody (Example 1); assay: inhibition ELISA, competitor plate-bound DAEFRH-C-BSA

Molecule: TPFRHTC [p4384]
Inhibition Capacity [1]: 1 (Weaker than original epitope (OD of 10 ug peptide below 3 times of original peptide))
Binding Capacity [2]: 2 (medium binding :4000-20000)

Molecule: QFKHDLC [p4391]
Inhibition Capacity [1]: 1 (Weaker than original epitope (OD of 10 ug peptide below 3 times of original peptide))
Binding Capacity [2]: 2 (medium binding :4000-20000)

Molecule: SAFRHHC [p4387]
Inhibition Capacity [1]: 1 (Weaker than original epitope (OD of 10 ug peptide below 3 times of original peptide))
Binding Capacity [2]: 2 (medium binding :4000-20000)

Molecule: LPFRHGC [p4388]
Inhibition Capacity [1]: 1 (Weaker than original epitope (OD of 10 ug peptide below 3 times of original peptide))
Binding Capacity [2]: 2 (medium binding :4000-20000)

Molecule: QDFRHYC [p4380]
Inhibition Capacity [1]: 1 (Weaker than original epitope (OD of 10 ug peptide below 3 times of original peptide))
Binding Capacity [2]: 2 (medium binding :4000-20000)

Molecule: SHFRHGC [p4389]
Inhibition Capacity [1]: 1 (Weaker than original epitope (OD of 10 ug peptide below 3 times of original peptide))
Binding Capacity [2]: 2 (medium binding :4000-20000)

Molecule: EEFKYSC [p4393]
Inhibition Capacity [1]: 1 (Weaker than original epitope (OD of 10 ug peptide below 3 times of original peptide))
Binding Capacity [2]: 2 (medium binding :4000-20000)

Molecule: TSFRHGC [p4382]
Inhibition Capacity [1]: 1 (Weaker than original epitope (OD of 10 ug peptide below 3 times of original peptide))
Binding Capacity [2]: 2 (medium binding :4000-20000)

Molecule: NWFPHPC [p4392]
Inhibition Capacity [1]: 1 (Weaker than original epitope (OD of 10 ug peptide below 3 times of original peptide))
Binding Capacity [2]: 1 (weak binding :<4000)

Molecule: GDLKFPLC [p4683]
OD halfmax dilution factor of the parental antibody (1:X) (dilutionfactor(1:x)) [4]: > 320000

Molecule: HMRLFFNC [p4670]
OD halfmax dilution factor of the parental antibody (1:X) (dilutionfactor(1:x)) [4]: > 320000

Molecule: GEIWFEGC [p4680]
OD halfmax dilution factor of the parental antibody (1:X) (dilutionfactor(1:x)) [4]: > 320000

Molecule: NDAKIVFC [p4667]
OD halfmax dilution factor of the parental antibody (1:X) (dilutionfactor(1:x)) [4]: > 320000

Molecule: GQIRFDHC [p4669]
OD halfmax dilution factor of the parental antibody (1:X) (dilutionfactor(1:x)) [4]: > 320000

Molecule: GQILFPVC [p4684]
OD halfmax dilution factor of the parental antibody (1:X) (dilutionfactor(1:x)) [4]: > 320000

Molecule: HMRMYFEC [p4687]
OD halfmax dilution factor of the parental antibody (1:X) (dilutionfactor(1:x)) [4]: > 320000

Molecule: ELEFRGC [Peptide 3008]
IC50 [5]: < 5 µg/mL

Molecule: HQKMIFAC [p4675]
OD halfmax dilution factor of the parental antibody (1:X) (dilutionfactor(1:x)) [4]: > 320000

Molecule: GMIVFPHC [p4679]
OD halfmax dilution factor of the parental antibody (1:X) (dilutionfactor(1:x)) [4]: > 320000

Molecule: GQIMFPRC [p4686]
OD halfmax dilution factor of the parental antibody (1:X) (dilutionfactor(1:x)) [4]: > 320000

Molecule: GEILFGMC [p4689]
OD halfmax dilution factor of the parental antibody (1:X) (dilutionfactor(1:x)) [4]: > 320000

Molecule: GELQFPPC [p4672]
OD halfmax dilution factor of the parental antibody (1:X) (dilutionfactor(1:x)) [4]: > 320000

Molecule: GEIRFALC [p4678]
OD halfmax dilution factor of the parental antibody (1:X) (dilutionfactor(1:x)) [4]: > 320000

Molecule: GELFFPKC [p4685]
OD halfmax dilution factor of the parental antibody (1:X) (dilutionfactor(1:x)) [4]: > 320000

Molecule: SHQRLWFC [p4674]
OD halfmax dilution factor of the parental antibody (1:X) (dilutionfactor(1:x)) [4]: > 320000

Molecule: GEIYFERC [p4681]
OD halfmax dilution factor of the parental antibody (1:X) (dilutionfactor(1:x)) [4]: > 320000

Molecule: GEMWFALC [p4671]
OD halfmax dilution factor of the parental antibody (1:X) (dilutionfactor(1:x)) [4]: > 320000

Molecule: GEMQFFIC [p4676]
OD halfmax dilution factor of the parental antibody (1:X) (dilutionfactor(1:x)) [4]: > 320000

Molecule: GELYFRAC [p4677]
OD halfmax dilution factor of the parental antibody (1:X) (dilutionfactor(1:x)) [4]: > 320000

Molecule: GELWFPC [p4673]
OD halfmax dilution factor of the parental antibody (1:X) (dilutionfactor(1:x)) [4]: > 320000

The next lines start with results.

Binding Capacity [2]: 3 (strong binding :>20000)
Molecule: HEFRHC [p4803]
Inhibition Capacity [1]: 2 (strong inhibition (as original epitope; OD of 10 ug peptide below 2 times of original peptide))

Binding Capacity [2]: 3 (strong binding :>20000)
Molecule: SEFKHC [p4801]
Inhibition Capacity [1]: 1 (Weaker than original epitope (OD of 10 ug peptide below 3 times of original peptide))

Binding Capacity [2]: 3 (strong binding :>20000)
Molecule: CHEFRH [p4802]
Inhibition Capacity [1]: 2 (strong inhibition (as original epitope; OD of 10 ug peptide below 2 times of original peptide))

Binding Capacity [2]: 3 (strong binding :>20000)
Molecule: EELRHSVC [p4746]
Inhibition Capacity [1]: 1 (Weaker than original epitope (OD of 10 ug peptide below 3 times of original peptide))

Binding Capacity [2]: 3 (strong binding :>20000)
Molecule: CSEFKH [p4800]
Inhibition Capacity [1]: 2 (strong inhibition (as original epitope; OD of 10 ug peptide below 2 times of original peptide))

Binding Capacity [2]: 3 (strong binding :>20000)
Molecule: DGLLFKHC [p4741]
Inhibition Capacity [1]: 1 (Weaker than original epitope (OD of 10 ug peptide below 3 times of original peptide))

OD halfmax 1:X (dilution factor of the parental antibody at half-maximal OD) (dilutionfactor(1:x)) [3]: 4000 to 20000
Molecule: LQFKHSTC [p4734]

OD halfmax dilution factor of the parental antibody (1:X) (dilutionfactor(1:x)) [4]: > 320000
Molecule: GQIKFAQC [p4694]

OD halfmax 1:X (dilution factor of the parental antibody at half-maximal OD) (dilutionfactor(1:x)) [3]: 4000 to 20000
Molecule: TGLMFKHC [p4736]

OD halfmax 1:X (dilution factor of the parental antibody at half-maximal OD) (dilutionfactor(1:x)) [3]: 4000 to 20000
Molecule: IGFRHDSC [p4742]

OD halfmax dilution factor of the parental antibody (1:X) (dilutionfactor(1:x)) [4]: > 320000
Molecule: GQLKFPFC [p4690]

OD halfmax dilution factor of the parental antibody (1:X) (dilutionfactor(1:x)) [4]: > 320000
Molecule: GEIRFGSC [p4696]

OD halfmax 1:X (dilution factor of the parental antibody at half-maximal OD) (dilutionfactor(1:x)) [3]: 4000 to 20000
Molecule: AEFMHSVC [p4739]

OD halfmax 1:X (dilution factor of the parental antibody at half-maximal OD) (dilutionfactor(1:x)) [3]: 4000 to 20000
Molecule: SAMRHSLC [p4732]

OD halfmax 1:X (dilution factor of the parental antibody at half-maximal OD) (dilutionfactor(1:x)) [3]: 4000 to 20000
Molecule: MLPFRHGC [p4731]

OD halfmax 1:X (dilution factor of the parental antibody at half-maximal OD) (dilutionfactor(1:x)) [3]: 4000 to 20000
Molecule: SQYFPRPC [p4729]

OD halfmax 1:X (dilution factor of the parental antibody at half-maximal OD) (dilutionfactor(1:x)) [3]: 4000 to 20000
Molecule: AEFSHWHC [p4737]

OD halfmax dilution factor of the parental antibody (1:X) (dilutionfactor(1:x)) [4]: > 320000
Molecule: GQIQFPLC [p4697]

OD halfmax dilution factor of the parental antibody (1:X) (dilutionfactor(1:x)) [4]: > 320000
Molecule: THQRLWFC [p4693]

OD halfmax 1:X (dilution factor of the parental antibody at half-maximal OD) (dilutionfactor(1:x)) [3]: 4000 to 20000
Molecule: SLMRHSSC [p4721]

OD halfmax 1:X (dilution factor of the parental antibody at half-maximal OD) (dilutionfactor(1:x)) [3]: 4000 to 20000
Molecule: NELFKHFC [p4727]

OD halfmax 1:X (dilution factor of the parental antibody at half-maximal OD) (dilutionfactor(1:x)) [3]: 4000 to 20000
Molecule: ATFRHSTC [p4735]

OD halfmax dilution factor of the parental antibody (1:X) (dilutionfactor(1:x)) [4]: > 320000
Molecule: GEIKFDHC [p4698]

OD halfmax 1:X (dilution factor of the parental antibody at half-maximal OD) (dilutionfactor(1:x)) [3]: 4000 to 20000
Molecule: AYFPHTSC [p4751]

OD halfmax dilution factor of the parental antibody (1:X) (dilutionfactor(1:x)) [4]: > 320000
Molecule: GEIQFGAC [p4699]
